Experimental findings from paper PMC7984235, “Structure‐based design of peptides that trigger Streptococcus pneumoniae cell death” (The Febs Journal, 2020) are described below.

To fix the notation:
B1: Pal-I (dsDNA)
DNA 1: AGCATCTAGGAAACTAGGTGCT
DNA 2: AGCACCTAGTTTCCTAGATGCT
B2: X (dsDNA)
DNA 1: GATTTTTTTTGATTTTTTT
DNA 2: AAAAAAATCAAAAAAAATC
B3: Pal-IV (dsDNA)
DNA 1: TAGGTTATAATTGTTATTAGGAA
DNA 2: TTCCTAATAACAATTATAACCTA
B4: B (dsDNA)
DNA 1: TAATAGAATAATAAGTATCACTCCTTTA
DNA 2: TAAAGGAGTGATACTTATTATTCTATTA
B5: HigA^19–97 (domain or fragment)
chain: SKEEILESDMRVAIMSELIEARNEKGISQKKLEEMSGVSQPVIARMETGKTSPQLDTVLKVLASLGKTLAVVPLEHEQV
notes: HigA antitoxin, S. pneumoniae strain TIGR4, gene sp_1144, residues 19 to 97; Made 13C/15N-labelled for NMR; tag removed with thrombin (residues of the tag after the thrombin site may remain); also called deletion mutant HigA19-97
B6: Streptococcus pneumoniae HigA antitoxin (natural protein)
chain: MKNNAIGSNWKDVRAELFSKEEILESDMRVAIMSELIEARNEKGISQKKLEEMSGVSQPVIARMETGKTSPQLDTVLKVLASLGKTLAVVPLEHEQV
notes: Cloned with Nde1/Xho1 into pET-21a(+); Forms a dimer within the HigB-(HigA)2-HigB heterotetramer; also called WT HigA; full-length HigA
B7: Pal-III (dsDNA)
DNA 1: TATTTTAATAACTTAAAAGT
DNA 2: ACTTTTAAGTTATTAAAATA
B8: Pal-II (dsDNA)
DNA 1: AACTTAAAAGTATTTACAAACAATAACTTTTAGGTT
DNA 2: AACCTAAAAGTTATTGTTTGTAAATACTTTTAAGTT
B9: Streptococcus pneumoniae HigB toxin (enzyme)
chain: MHNIYFYKDKNGNEPVFDYMRELTSKKGKDSRIKLNKINDYIELLSQHGTRAGEPYIKHLDAEIWELRPLRDRILFVAWMDGSFVLLHHFMKRTQKTPKREIEQAKRELADLKERGLDNEK

Series [1] deals with T1, HigB;HigA (Streptococcus pneumoniae …, UniProt A0A0H2UQ08;A0A0H2UQ20 1-121;1-97, |). In words: ITC; n=0.53; ITC: 50 mM MES pH 6.0, 100 mM NaCl, 25 C; […]. As to conditions: protein: recombinant;recombinant; chain copies: 2;2; blunt.
Series [2] addresses T2, HigA (Streptococcus pneumoniae TIGR4, UniProt A0A0H2UQ20 1-97). Described as above. As to conditions: protein: recombinant; tags: pET-21a(+), stop codon in reverse primer; chain copies: 2; blunt.
In series [3] the target is T1, HigB;HigA. The experiment in a line: EMSA; up to 0.6 mM protein; ITC: 50 mM MES pH 6.0, 100 mM NaCl, 25 C; […]. As to conditions: protein: recombinant;recombinant; chain copies: 2;2; blunt.
Series [4] deals with T1, HigB;HigA. The experiment in a line: ITC; n=0.48; ITC: 50 mM MES pH 6.0, 100 mM NaCl, 25 C; […]. As to conditions: protein: recombinant;recombinant; chain copies: 2;2; blunt.
Series [5] deals with the molecule itself. The experiment in a line: SEC; oligomeric state from a molecular weight comparison with various reference proteins (Fig. S2).
Series [6] concerns the molecule itself. In words: crystal structure; HigBA complex, sitting-drop vapor diffusion at 293 K; protein 11 mg/mL in 50 mM MES pH 6.0, 500 mM NaCl; native data to 2.30 Å, SeMet SAD phasing at 2.80 Å.
The target in series [7] is T2, HigA. In words: ITC; n=0.50; ITC: 50 mM MES pH 6.0, 100 mM NaCl, 25 C; […]. The note with it: protein: recombinant; tags: pET-21a(+), stop codon in reverse primer; chain copies: 2; blunt.
Series [8] addresses T1, HigB;HigA. The experiment in a line: ITC; n=0.49; ITC: 50 mM MES pH 6.0, 100 mM NaCl, 25 C; […]. The note with it: protein: recombinant;recombinant; chain copies: 2;2; blunt.
The target in series [9] is T2, HigA. The experiment in a line: ITC; n=0.51; ITC: 50 mM MES pH 6.0, 100 mM NaCl, 25 C; […]. The note with it: protein: recombinant; tags: pET-21a(+), stop codon in reverse primer; chain copies: 2; blunt.
Series [10] concerns the target B6. The experiment in a line: cell-based or functional assay.

Consider B1, for which the Kd with HigB;HigA [1] was 460 ± 30 nM; in the series with HigA [2] it was 1610 ± 20 nM.

Regarding B2, the binding result with HigB;HigA [3] is “no binding”.

B3: the Kd in the series with HigB;HigA [4] is 1190 ± 140 nM.

As for B4, the binding result in the series with HigB;HigA [3] is listed as “no binding”.

Turning to B5, the “stoichiometry N” value in [5] is 2.

With B6, the binding result in [6] is on record as “binds”.

Take B7: the results for the Kd in the series with HigB;HigA [4] and with HigA [7] were 200 ± 10 nM and 1340 ± 10 nM, respectively.

As for B8, the dissociation constant (Kd) with HigB;HigA [8] was found to be 700 ± 80 nM; in the series with HigA [9], 2530 ± 110 nM.

For B9, in series [10], the “ribonuclease activity (fluorescence-labeled RNA substrate) of 2 μM HigBA after addition of 10 μM HigB α2 helix-mimicking peptide, relative to free HigB” value was ~80%.
